The target of assay [1] is insulin receptor on primary rat adipocytes (rat) (UniProt P15127). The assay can be described thus: cell-based or functional assay.
The target of assay [2] is membrane-associated human IR-A (plasma membranes of BHK cells stably transfected with the human IR-A insert) (human) (UniProt P06213). The assay can be described thus: SPA competition vs [125I-A14Y]-human insulin, membrane hIR-A, 0.1% HSA.
In assay [3] the target is membrane-associated human IR-B (plasma membranes of BHK cells stably transfected with the human IR-B insert) (human) (UniProt P06213). Put plainly: SPA competition vs [125I-A14Y]-human insulin, membrane hIR-B, 0.1% HSA.
membrane-associated human IR-B (plasma membranes of BHK cells stably transfected with the human IR-B insert) (human), sequence (P06213 28-1382): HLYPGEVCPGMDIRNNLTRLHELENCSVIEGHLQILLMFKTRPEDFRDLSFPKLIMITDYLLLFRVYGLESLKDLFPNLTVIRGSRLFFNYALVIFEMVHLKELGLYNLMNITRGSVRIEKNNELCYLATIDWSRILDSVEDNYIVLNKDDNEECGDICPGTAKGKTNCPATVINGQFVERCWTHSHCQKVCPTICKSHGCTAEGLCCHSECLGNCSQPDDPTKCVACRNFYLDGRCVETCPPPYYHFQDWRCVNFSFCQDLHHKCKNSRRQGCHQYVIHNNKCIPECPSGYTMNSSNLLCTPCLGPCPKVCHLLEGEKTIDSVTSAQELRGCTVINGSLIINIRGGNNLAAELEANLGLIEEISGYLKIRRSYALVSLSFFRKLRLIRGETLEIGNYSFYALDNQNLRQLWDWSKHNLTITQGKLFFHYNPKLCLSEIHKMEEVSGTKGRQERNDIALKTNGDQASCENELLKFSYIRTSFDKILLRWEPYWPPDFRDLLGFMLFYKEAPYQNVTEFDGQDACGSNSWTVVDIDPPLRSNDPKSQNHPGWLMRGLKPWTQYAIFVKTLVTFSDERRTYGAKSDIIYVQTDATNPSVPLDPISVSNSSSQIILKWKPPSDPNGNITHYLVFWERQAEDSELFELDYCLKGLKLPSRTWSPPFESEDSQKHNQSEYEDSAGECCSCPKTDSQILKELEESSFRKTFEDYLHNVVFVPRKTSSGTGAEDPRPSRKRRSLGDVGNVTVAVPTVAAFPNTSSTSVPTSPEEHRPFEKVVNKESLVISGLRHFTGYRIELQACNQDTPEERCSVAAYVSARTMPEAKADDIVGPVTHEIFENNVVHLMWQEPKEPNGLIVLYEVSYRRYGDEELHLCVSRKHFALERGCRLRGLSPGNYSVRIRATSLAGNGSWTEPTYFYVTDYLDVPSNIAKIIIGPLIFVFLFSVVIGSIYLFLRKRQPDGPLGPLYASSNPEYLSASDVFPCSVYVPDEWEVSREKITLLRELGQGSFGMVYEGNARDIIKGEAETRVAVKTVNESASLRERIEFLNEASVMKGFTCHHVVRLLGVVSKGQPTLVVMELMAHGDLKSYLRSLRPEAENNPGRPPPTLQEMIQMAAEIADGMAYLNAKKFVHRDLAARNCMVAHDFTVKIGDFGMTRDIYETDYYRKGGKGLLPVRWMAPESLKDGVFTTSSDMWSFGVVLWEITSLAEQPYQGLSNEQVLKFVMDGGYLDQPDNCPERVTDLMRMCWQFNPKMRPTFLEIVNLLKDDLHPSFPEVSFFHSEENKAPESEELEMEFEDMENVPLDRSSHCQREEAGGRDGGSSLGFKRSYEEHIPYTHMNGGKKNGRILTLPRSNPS
Assay [4] has as its target T1, solubilised human IR-A (semipurified by wheat germ agglutinin chromatography from baby hamster kidney (BHK) … (human, UniProt P06213-2 28-1370)).
T1 construct: mature; Detergent-solubilised holoreceptor captured by anti-IR mouse antibody 83-7 on SPA beads; the precursor is processed into alpha and beta chains; also called hIRA; human insulin receptor (IR), A isoform
The assay can be described thus: SPA competition vs [125I-A14Y]-human insulin, solubilised hIR-A, 0% HSA.

Assay [5] deals with T2, membrane-associated human IGF-1R (plasma membranes of BHK cells stably transfected with the human IGF-IR … (human, UniProt P08069 31-1367)).
T2 construct: whole, on cells; Receptor in purified plasma membranes, not on intact cells; also called hIGF1R; insulin-like growth factor 1 receptor
The assay can be described thus: SPA competition vs [125I-Tyr31]-human IGF-1, membrane hIGF-1R, 0.1% HSA. The procedure:
The relative binding affinity for either of the membrane-associated human IR-A, IR-B or IGF-1R is determined by competition binding in a SPA setup. IR assays are performed in duplicate in 96-well OptiPlates (Perkin-Elmer Life Sciences). […] Assays are terminated by centrifugation of the plate at 2000 rpm for 2 minutes and bound radioactivity quantified by counting on a TopCount NXT (Perkin-Elmer Life Sciences).
IGF-1R assays are conducted essentially as for the IR binding assays except that membrane-associated IGF-1R and 50 pM [¹²5-Tyr31]-human IGF-1 were employed.

Assay [6] has as its target T1, solubilised human IR-A (semipurified by …). The assay can be described thus: SPA competition vs [125I-A14Y]-human insulin, solubilised hIR-A, 1.5% HSA.

insulin receptor on primary rat adipocytes (rat), sequence (P15127 27-1383): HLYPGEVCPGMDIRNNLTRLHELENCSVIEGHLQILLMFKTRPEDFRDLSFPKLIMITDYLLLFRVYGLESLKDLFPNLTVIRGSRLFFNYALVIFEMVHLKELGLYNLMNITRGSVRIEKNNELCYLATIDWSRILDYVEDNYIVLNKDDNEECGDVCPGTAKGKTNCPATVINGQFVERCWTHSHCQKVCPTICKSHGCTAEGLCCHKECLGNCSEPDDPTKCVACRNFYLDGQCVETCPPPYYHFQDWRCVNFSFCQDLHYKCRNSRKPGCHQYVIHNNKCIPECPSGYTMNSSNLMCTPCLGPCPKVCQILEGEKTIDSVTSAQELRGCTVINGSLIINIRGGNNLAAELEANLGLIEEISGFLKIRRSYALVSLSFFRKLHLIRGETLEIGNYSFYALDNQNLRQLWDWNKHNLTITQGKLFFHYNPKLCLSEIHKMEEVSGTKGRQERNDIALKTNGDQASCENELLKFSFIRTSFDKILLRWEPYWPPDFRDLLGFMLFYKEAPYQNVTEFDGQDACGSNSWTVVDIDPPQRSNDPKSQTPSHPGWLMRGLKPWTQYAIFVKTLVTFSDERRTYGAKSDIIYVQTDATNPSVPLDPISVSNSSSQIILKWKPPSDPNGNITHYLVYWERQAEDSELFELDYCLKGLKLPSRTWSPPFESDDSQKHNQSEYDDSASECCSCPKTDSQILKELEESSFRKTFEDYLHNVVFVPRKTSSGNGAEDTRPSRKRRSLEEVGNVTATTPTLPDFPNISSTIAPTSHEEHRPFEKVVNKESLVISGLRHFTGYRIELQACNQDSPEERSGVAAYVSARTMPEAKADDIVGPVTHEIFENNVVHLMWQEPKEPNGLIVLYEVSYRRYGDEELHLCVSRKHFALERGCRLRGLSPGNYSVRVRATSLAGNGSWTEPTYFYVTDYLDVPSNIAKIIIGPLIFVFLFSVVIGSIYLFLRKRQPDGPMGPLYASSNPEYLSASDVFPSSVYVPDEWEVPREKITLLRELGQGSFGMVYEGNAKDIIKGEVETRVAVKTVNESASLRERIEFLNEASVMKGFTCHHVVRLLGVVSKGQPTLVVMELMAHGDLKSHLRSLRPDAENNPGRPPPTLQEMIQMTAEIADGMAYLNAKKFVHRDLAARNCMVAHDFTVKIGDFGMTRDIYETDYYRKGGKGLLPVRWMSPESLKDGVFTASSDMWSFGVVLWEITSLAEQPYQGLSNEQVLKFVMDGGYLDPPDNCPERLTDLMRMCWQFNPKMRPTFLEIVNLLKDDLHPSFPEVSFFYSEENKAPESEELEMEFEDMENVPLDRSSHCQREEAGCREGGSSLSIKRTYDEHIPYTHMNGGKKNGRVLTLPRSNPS
T1 sequence (P06213 other isoform, or with tags, fused parts or gaps limits assumed): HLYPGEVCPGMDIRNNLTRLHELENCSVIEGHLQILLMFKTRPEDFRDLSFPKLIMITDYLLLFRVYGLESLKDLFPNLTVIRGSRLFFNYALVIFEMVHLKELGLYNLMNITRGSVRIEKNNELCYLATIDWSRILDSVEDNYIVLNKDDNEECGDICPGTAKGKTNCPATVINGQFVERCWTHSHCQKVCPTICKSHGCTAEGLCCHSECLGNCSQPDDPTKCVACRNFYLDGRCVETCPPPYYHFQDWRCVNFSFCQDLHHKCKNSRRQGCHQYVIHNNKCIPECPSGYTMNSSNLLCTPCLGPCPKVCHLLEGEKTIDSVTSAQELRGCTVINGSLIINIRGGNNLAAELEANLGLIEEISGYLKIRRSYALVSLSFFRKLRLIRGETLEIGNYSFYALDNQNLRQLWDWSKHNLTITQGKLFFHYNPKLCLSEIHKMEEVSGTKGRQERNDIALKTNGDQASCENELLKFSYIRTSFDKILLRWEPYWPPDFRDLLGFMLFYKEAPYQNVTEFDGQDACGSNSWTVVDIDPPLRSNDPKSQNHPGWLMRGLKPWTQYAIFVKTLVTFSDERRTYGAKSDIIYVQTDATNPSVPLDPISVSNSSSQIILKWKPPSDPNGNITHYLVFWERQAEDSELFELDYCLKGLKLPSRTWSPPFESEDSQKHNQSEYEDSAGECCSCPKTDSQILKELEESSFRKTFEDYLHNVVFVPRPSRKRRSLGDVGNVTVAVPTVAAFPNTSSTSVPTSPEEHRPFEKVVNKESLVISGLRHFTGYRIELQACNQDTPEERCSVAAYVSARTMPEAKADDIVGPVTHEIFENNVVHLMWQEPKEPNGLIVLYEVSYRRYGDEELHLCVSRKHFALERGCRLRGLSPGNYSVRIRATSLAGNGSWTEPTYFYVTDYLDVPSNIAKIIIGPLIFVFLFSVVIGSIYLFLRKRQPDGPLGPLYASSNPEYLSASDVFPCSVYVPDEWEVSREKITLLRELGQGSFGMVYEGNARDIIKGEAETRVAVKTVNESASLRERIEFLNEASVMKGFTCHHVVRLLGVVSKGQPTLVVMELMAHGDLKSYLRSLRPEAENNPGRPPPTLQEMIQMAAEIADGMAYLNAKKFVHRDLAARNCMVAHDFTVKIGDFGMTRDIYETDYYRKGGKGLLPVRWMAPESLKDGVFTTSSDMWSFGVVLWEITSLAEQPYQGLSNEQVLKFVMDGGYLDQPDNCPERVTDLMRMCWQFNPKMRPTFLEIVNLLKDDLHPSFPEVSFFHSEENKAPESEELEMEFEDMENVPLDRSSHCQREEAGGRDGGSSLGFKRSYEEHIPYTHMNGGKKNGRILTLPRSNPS

For the molecule “A22K(N(eps)Hexadecanedioyl-gGlu-2xOEG), B3E, B27E, B29R, desB30 human insulin (ligand)”, in assay [1], the Lipogenesis 1% HSA (% rel to HI) was 3.2 % rel to HI. Also, the relative binding affinity (% rel to HI) in assay [2] was 71.1 % rel to HI; in assay [3], 72.1 % rel to HI.
For the molecule “A22K(N(eps)hexadecanedioyl-4xgGlu), B3E, B26E, B29R, desB30 human insulin (ligand)”, the relative binding affinity (% rel to HI) in assay [2] was 29.1 % rel to HI; in assay [3], 46.8 % rel to HI.
Consider “A22K(N(eps)hexadecanedioyl-4xgGlu), B3E, B27E, B28E, B29R, desB30 human insulin (ligand)”, for which the Lipogenesis 1% HSA (% rel to HI) in assay [1] was 4.4 % rel to HI. The relative binding affinity (% rel to HI) in assay [2] was 29.1 % rel to HI; in assay [3], 35.7 % rel to HI.
In the same order, the values of “A22K(N(eps)hexadecanedioyl-4xgGlu), B3E, B27E, B29R, desB30 human insulin (ligand)” are 1.1 % rel to HI, 25.7 % rel to HI and 55.3 % rel to HI.
Take “A22K(N(eps)hexadecanedioyl-4xgGlu), B3E, B27P, B28E, B29R, desB30 human insulin (ligand)”: the Lipogenesis 1% HSA (% rel to HI) in assay [1] was 3.7 % rel to HI. Besides, the relative binding affinity (% rel to HI) in assay [2] is 27.5 % rel to HI; in assay [3], 32.1 % rel to HI.
Consider “A22K(N(eps)hexadecanedioyl-4xgGlu), B3E, B28D, B29R, desB30 human insulin (ligand)”, for which the Lipogenesis 1% HSA (% rel to HI) in assay [1] was 3.8 % rel to HI. The relative binding affinity (% rel to HI) is 20.9 % rel to HI in assay [2] and 47.8 % rel to HI in assay [3].
In the case of “A22K(N(eps)hexadecanedioyl-gGlu-2xOEG), B3E, B26E, B29R, desB30 human insulin (ligand)”, the relative binding affinity (% rel to HI) in assay [2] was 34.4 % rel to HI; in assay [3] it was 40.2 % rel to HI.
As for “A22K(N(eps)hexadecanedioyl-gGlu-2xOEG), B3E, B27E, B28E, B29R, desB30 human insulin (ligand)”, in assay [1], the Lipogenesis 1% HSA (% rel to HI) is 4.4 % rel to HI. Moreover, the relative binding affinity (% rel to HI) in assay [2] is 30.9 % rel to HI; in assay [3], 38.2 % rel to HI.
On to “A22K(N(eps)hexadecanedioyl-gGlu-2xOEG), B3E, B27P, B28E, B29R, desB30 human insulin (ligand)”, for which, in assay [1], the Lipogenesis 1% HSA (% rel to HI) was 3.3 % rel to HI. Besides, the values for the relative binding affinity (% rel to HI) in assay [2] and in assay [3] were 31.2 % rel to HI and 29.4 % rel to HI, respectively.
The like results for “A22K(N(eps)hexadecanedioyl-gGlu-2xOEG), B3E, B28D, B29R, desB30 human insulin (ligand)” were, in that order, 2.6 % rel to HI, 32.1 % rel to HI and 40.7 % rel to HI.
In the same order, the values of “A22K(N(eps)tetradecanedioyl-4xgGlu), B3E, B26E, B27E, B28E, B29R, desB30 human insulin (ligand)” are 18.2 % rel to HI, 48.3 % rel to HI and 82.4 % rel to HI.
For “A22K(N(eps)tetradecanedioyl-4xgGlu), B3E, B26E, B27E, B28R, desB29, desB30 human insulin (ligand)”, the Lipogenesis 1% HSA (% rel to HI) in assay [1] was 29.6 % rel to HI. In addition, the relative binding affinity (% rel to HI) was 57.2 % rel to HI in assay [2] and 93.3 % rel to HI in assay [3].
In the same order, the values of “A22K(N(eps)tetradecanedioyl-4xgGlu), B3E, B26E, B27P, B28R, desB29, desB30 human insulin (ligand)” are 78.8 % rel to HI, 63.2 % rel to HI and 90.7 % rel to HI.
On to “A22K(N(eps)tetradecanedioyl-4xgGlu), B3E, B26E, B28E, B29P, B30R human insulin (ligand)”, for which, in assay [1], the Lipogenesis 1% HSA (% rel to HI) is 17.9 % rel to HI. Besides, the relative binding affinity (% rel to HI) in assay [2] is 46.4 % rel to HI; in assay [3], 76.2 % rel to HI.
Turning to “A22K(N(eps)tetradecanedioyl-4xgGlu), B3E, B26E, B28E, B29R, desB30 human insulin (ligand)”, the Lipogenesis 1% HSA (% rel to HI) in assay [1] is 20.5 % rel to HI. The relative binding affinity (% rel to HI) in assay [2] was 68 % rel to HI; in assay [3], 111 % rel to HI.
Take “A22K(N(eps)tetradecanedioyl-4xgGlu), B3E, B26E, B29R, desB30 human insulin (ligand)”: in assay [1], the Lipogenesis 1% HSA (% rel to HI) was 31.3 % rel to HI. Moreover, the relative binding affinity (% rel to HI) in assay [2] was 66.9 % rel to HI; in assay [3] it was 105 % rel to HI.
In the same order, the values of “A22K(N(eps)tetradecanedioyl-4xgGlu), B3E, B27E, B28E, B29P, B30R human insulin (ligand)” are 23.7 % rel to HI, 45.1 % rel to HI and 70 % rel to HI.
The like results for “A22K(N(eps)tetradecanedioyl-4xgGlu), B3E, B27E, B28E, B29R, desB30 human insulin (ligand)” were, in that order, 27.3 % rel to HI, 74.9 % rel to HI and 157 % rel to HI.
The like results for “A22K(N(eps)tetradecanedioyl-4xgGlu), B3E, B27E, B28R, desB29, desB30 human insulin (ligand)” were, in that order, 29.9 % rel to HI, 40.6 % rel to HI and 81.7 % rel to HI.
Regarding “A22K(N(eps)tetradecanedioyl-4xgGlu), B3E, B27E, B29R, desB30 human insulin (ligand)”, in assay [1], the Lipogenesis 1% HSA (% rel to HI) was 11.1 % rel to HI. For the same molecule, the relative binding affinity (% rel to HI) was 61.5 % rel to HI in assay [2] and 119 % rel to HI in assay [3].
In the same order, the values of “A22K(N(eps)tetradecanedioyl-4xgGlu), B3E, B27P, B28E, B29R, desB30 human insulin (ligand)” are 27 % rel to HI, 64.3 % rel to HI and 77.6 % rel to HI.
In the case of “A22K(N(eps)tetradecanedioyl-4xgGlu), B3E, B28D, B29R, desB30 human insulin (ligand)”, in assay [1], the Lipogenesis 1% HSA (% rel to HI) was 26.4 % rel to HI. In addition, the values for the relative binding affinity (% rel to HI) in assay [2] and in assay [3] were 64.9 % rel to HI and 93.7 % rel to HI, respectively.
“A22K(N(eps)tetradecanedioyl-4xgGlu), B3E, B28E, B29P, B30R human insulin (ligand)”: the Lipogenesis 1% HSA (% rel to HI) in assay [1] was 19.5 % rel to HI. For the same molecule, the values for the relative binding affinity (% rel to HI) in assay [2] and in assay [3] were 44.6 % rel to HI and 94.5 % rel to HI, respectively.
Turning to “A22K(N(eps)tetradecanedioyl-4xgGlu), B3Q, B26E, B28E, B29R, desB30 human insulin (ligand)”, the Lipogenesis 1% HSA (% rel to HI) in assay [1] was 31.2 % rel to HI. Besides, the relative binding affinity (% rel to HI) in assay [2] is 78.5 % rel to HI; in assay [3] it was 133 % rel to HI.
In the same order, the values of “A22K(N(eps)tetradecanedioyl-4xgGlu), B3Q, B26E, B29R, desB30 human insulin (ligand)” are 31.4 % rel to HI, 76.5 % rel to HI and 163 % rel to HI.
As to “A22K(N(eps)tetradecanedioyl-gGlu-2xOEG), B3E, B27E, B28E, B29R, desB30 human insulin (ligand)”, the Lipogenesis 1% HSA (% rel to HI) in assay [1] was 23.9 % rel to HI. Besides, the results for the relative binding affinity (% rel to HI) in assay [2] and in assay [3] were 103 % rel to HI and 159 % rel to HI, respectively.
On to “A22K(N(eps)tetradecanedioyl-gGlu-2xOEG), B3E, B27P, B28E, B29R, desB30 human insulin (ligand)”, for which the Lipogenesis 1% HSA (% rel to HI) in assay [1] was 20.3 % rel to HI. The relative binding affinity (% rel to HI) is 75.6 % rel to HI in assay [2] and 75.9 % rel to HI in assay [3].
In the same order, the values of “A22K(N(eps)tetradecanedioyl-gGlu-2xOEG), B3E, B28D, B29R, desB30 human insulin (ligand)” are 21.3 % rel to HI, 93.9 % rel to HI and 108 % rel to HI.

B1: A8R, A22K(N(eps)tetradecanedioyl-4xgGlu), B3E, B26E, B28E, B29R, desB30 human insulin (ligand)
chain 1: GIVEQCCRSICSLYQLENYCNK
chain 2: FVEQHLCGSHLVEALYLVCGERGFFETER
modifications: not fully specified; Lys A22 acylated on N(eps) with tetradecanedioyl-4xgGlu
notes: Two-chain acylated insulin analogue; also called Ex. No. 23
As for B1, the Lipogenesis 1% HSA (% rel to HI) in assay [1] was 59 % rel to HI. The relative binding affinity (% rel to HI) is 78.5 % rel to HI in assay [2]; 143 % rel to HI in assay [3]; 229 % rel to HI in assay [4]; 5.7 % rel to HI in assay [5]; 182 % rel to HI in assay [6].

The values above are taken from US20180305431A1 (Novo Nordisk, published 2018).
